# How the values were obtained:
# Cdk5/P35 [1] = target: T1, Cdk5/P35 (Rattus norvegicus, UniProt Q03114); test: Kinase assay of Cdk5 immunoprecipitates from cortical neurons, infected or endogenous Cdk5/P35; assay type: cell-based; details: cortical neurons infected only with P5, or uninfected treated with 20 μM roscovitine
# T1 construct: endogenous in cells; host or cells: E-18 rat cortical neurons
# Procedure: (§1) Briefly, 7 days in culture (7 DIC) primary rat cortical neurons were infected with P25, P35, Cdk5 wild-type, dominant negative-Cdk5 and P5 using the lentiviral gene delivery as described earlier. Cdk5 was immunoprecipitated using the polyclonal C8 antibody overnight at 4° C. and immunoglobulin isolated using Protein A sepharose beads for 2 hours at 4° C. Immunoprecipitates were washed three times with lysis buffer and then once with 1× kinase buffer containing 20 mM Tris-Cl pH 7.4, 1 mM EDTA, 1 mM EGTA, 10 mM MgCl2, 10 mM sodium fluoride and 1 mM sodium orthovanadate. Endogenous Cdks were immunoprecipitated from HEK 293 cells using their respective antibodies and treated as above. […] ATP with 20 μg of histone H1 as the substrate. Phosphorylation was performed in a final volume of […] incubated at 30° C. for 60 minutes, stopped by the addition of 10% SDS sample buffer and heating at 95° C. for 5 minutes. Samples were separated by SDS-PAGE, gels were stained with Coomassie, destained, dried and exposed to autoradiography. In pad assays, 25 μl aliquots of the incubation mixture were placed on a Whatman p80 paper square, washed and dried and placed in a scintillation vial for counting.
# Cdk5/P35 [2] = test: as above; assay type: cell-based, rat; details: E-18 rat cortical neurons co-infected with P5
# Procedure: as §1
# Cdk5/P25 [3] = target: Cdk5/P25 (Homo sapiens, UniProt Q00535); test: Kinase assay of Cdk5 immunoprecipitates from cortical neurons infected with Cdk5/P25 with or without P5; assay type: cell-based; parameters: expressed in transfected cells; host or cells: E-18 rat cortical neurons, adenoviral infection (pAdTrack-CMV / AdEasy); details: E-18 rat cortical neurons co-infected with P5
# Sequence of Cdk5/P25 (Homo sapiens, UniProt Q00535) (Q00535 whole entry, species assumed): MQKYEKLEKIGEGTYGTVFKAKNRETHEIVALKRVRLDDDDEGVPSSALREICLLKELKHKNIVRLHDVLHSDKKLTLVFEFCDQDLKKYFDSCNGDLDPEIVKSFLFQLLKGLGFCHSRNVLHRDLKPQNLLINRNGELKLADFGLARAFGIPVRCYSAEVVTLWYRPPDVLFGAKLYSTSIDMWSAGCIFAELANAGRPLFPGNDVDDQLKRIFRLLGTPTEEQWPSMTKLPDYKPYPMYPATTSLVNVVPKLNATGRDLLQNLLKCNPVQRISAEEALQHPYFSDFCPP
# Procedure: Primary cultures of rat cortical neurons were prepared from E-18 rat fetuses as described previously (Zheng et al., J Biol Chem 278(26), 24026-24032, 2003). After 7 days, cells were infected independently or co-infected with empty vector (EV), the constructs of P5, P25, P35, wild-type Cdk5 and dominant negative Cdk5 (changing Lys33 to Thr33) using the Adenoviral vector (pAdTrack-CMV) packaging system as described above. […] The cells were fixed for immunocytochemistry analyses (ICC) or lysed with lysis buffer for immunoprecipitation and Western blot analyses. Cortical neuron cultures were prepared and plated on the cover slips as described. Human embryo kidney cells (HEK293) were grown as described previously (Zheng et al., Eur J Biochem 269(18), 4427-4434, 2002). In these studies HEK293 cells on day 1, or neurons on day 5, were transfected with or without Myc-P5-GFP using Lipofectamine 2000 following the manufacturer's instructions.
# Kinase assays were performed as previously described (Veeranna, et al., J Neurosci 18(11), 4008-4021, 1998). Briefly, 7 days in culture (7 DIC) primary rat cortical neurons were infected with P25, P35, Cdk5 wild-type, dominant negative-Cdk5 and P5 using the lentiviral gene delivery as described earlier. […]
# Cdk5/P25 [4] = target: T2, Cdk5/P25 (Rattus norvegicus, UniProt Q03114); test: In vitro kinase assay on Cdk5 immunoprecipitates of Aβ1-42-treated cortical neurons with added P5 peptide; assay type: biochemical; details: P5 0.45 μM or above
# T2 construct: endogenous in cells; host or cells: E-18 rat cortical neurons treated with 10 uM Abeta1-42
# T2 sequence (Q03114 whole entry): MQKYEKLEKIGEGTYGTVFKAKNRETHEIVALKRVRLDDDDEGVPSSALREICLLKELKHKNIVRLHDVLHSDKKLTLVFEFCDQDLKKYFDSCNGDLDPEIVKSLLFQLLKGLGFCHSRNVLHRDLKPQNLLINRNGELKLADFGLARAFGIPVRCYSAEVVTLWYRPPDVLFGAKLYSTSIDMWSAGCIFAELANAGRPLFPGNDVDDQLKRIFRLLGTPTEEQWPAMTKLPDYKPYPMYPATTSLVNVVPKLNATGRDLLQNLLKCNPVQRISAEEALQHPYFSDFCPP
# Procedure: Kinase assays were performed as previously described (Veeranna, et al., J Neurosci 18(11), 4008-4021, 1998). Briefly, 7 days in culture (7 DIC) primary rat cortical neurons were infected with P25, P35, Cdk5 wild-type, dominant negative-Cdk5 and P5 using the lentiviral gene delivery as described earlier. Cdk5 was immunoprecipitated using the polyclonal C8 antibody overnight at 4° C. and immunoglobulin isolated using Protein A sepharose beads for 2 hours at 4° C. Immunoprecipitates were washed three times with lysis buffer and then once with 1× kinase buffer containing 20 mM Tris-Cl pH 7.4, 1 mM EDTA, 1 mM EGTA, 10 mM MgCl2, 10 mM sodium fluoride and 1 mM sodium orthovanadate. Endogenous Cdks were immunoprecipitated from HEK 293 cells using their respective antibodies and treated as above. Kinase assays were performed in the same buffer containing 1 mM DTT, 0.1 mM ATP and 0.185 MBq [γ-32P] ATP with 20 μg of histone H1 as the substrate. […]
# To determine the minimum dose at which the P5 peptide is an efficient inhibitor of Cdk5/P25 hyperactivity under physiological conditions, cortical neurons were treated with Aβ1-42 to induce the expression of P25 and Cdk5 hyperactivation, Cdk5 immunoprecipitates were prepared and the effect of different concentrations of P5 was evaluated (FIG. 6).
# T1 sequence (Q03114 whole entry): as above
# T1 sequence (P61810 2-307 partner): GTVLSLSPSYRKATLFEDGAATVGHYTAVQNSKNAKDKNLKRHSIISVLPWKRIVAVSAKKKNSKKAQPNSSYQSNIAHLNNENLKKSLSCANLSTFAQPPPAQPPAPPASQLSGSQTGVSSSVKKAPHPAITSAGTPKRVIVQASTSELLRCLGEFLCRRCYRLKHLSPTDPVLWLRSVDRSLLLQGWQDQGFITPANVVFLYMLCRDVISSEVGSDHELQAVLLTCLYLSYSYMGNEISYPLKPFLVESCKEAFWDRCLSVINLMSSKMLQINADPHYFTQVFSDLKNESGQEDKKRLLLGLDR
substance,measurement,setting,value
P5: 24 residue peptide derived from Cdk5 activator P35 (K254-A277 of SEQ ID NO: 16); Cdk5 inhibitory peptide (KEAFWDRCLSVINLMSSKMLQINA; listed as Homo sapiens),Effect on endogenous Cdk5/P35 activity,Cdk5/P35 [1],no reduction in activity
same,Inhibition of Cdk5 activity in neurons co-infected with Cdk5/P35,Cdk5/P35 [2],10-20%
same,Decrease of Cdk5 activity in neurons infected with Cdk5/P25,Cdk5/P25 [3],more than 90%
same,Aβ1-42-induced Cdk5 hyperactivity,Cdk5/P25 [4],totally eliminated
